One assay has as its target T1, recombinant TrkB protein (Homo sapiens, UniProt Q16620).
T1 construct: Full-length human TrkB or MDGA2 cDNA was cloned into the pcDNA6-His vector; His; made in house; host or cells: HEK293T cells
Briefly: Surface plasmon resonance (Biacore CM5, immobilized TrkB). Type of assay: binding. Conditions: SPR, TrkB immobilized on Biacore CM5 chip, analyte at several concentrations, Biacore T100 Evaluation software. How it is done: (§1) Fig 3 MDGA2 interacts with TrkB and suppresses TrkB activity. (A) Primary hippocampal neurons derived from Mdga2^ +/− (Het) mice and their wild-type (WT) littermates at DIV 7 were treated with different doses of BDNF for 30 min. Equal amounts of protein lysates were subjected to immunoprecipitation (IP) with an anti-TrkB antibody, followed by immunoblotting with an anti-phosphotyrosine (pTyr) antibody or the anti-TrkB antibody. The pTyr levels were quantified by densitometry, normalized to total TrkB levels, and then compared to those of WT controls. n = 3 per group. (B) WT mouse brain lysates were subjected to IP with an anti-MDGA2 antibody and a control IgG, and immunoblotted (IB) for the components indicated. mBDNF, mature BDNF; ImBDNF, immature BDNF. […] Immunoprecipitated TrkB levels were quantified by densitometry, normalized to input levels, and compared to respective controls (set to one arbitrary units). n = 3 per group. […] Levels of phosphorylated proteins were quantified by densitometry, normalized to respective total protein levels and compared to controls (set to one arbitrary units). n = 6 per group. […] P-values were determined by two-tailed unpaired Student t-test in (A) and one-way ANOVA with Tukey’s multiple comparisons test in (H, I, J). *p < 0.05, **p < 0.01, ***p < 0.001, ns: not significant. […]

In the next assay the test system is BDNF-TrkB interaction. Briefly: BDNF-TrkB Co-IP (anti-BDNF or anti-TrkB) in primary neurons / brain of Het, KO, WT and in WT neurons transfected with MDGA2 or ΔMAM. Conditions: IP anti-BDNF, Fig 3I. Type of assay: cell-based, mouse. How it is done:
as §1

The test system of assay [1] is TrkB signaling (pTrkB, pAkt, pmTOR). The experiment in a line: Immunoblotting of TrkB/Akt/mTOR phosphorylation in primary neurons transfected with MDGA2, ΔMAM or V930I. Format: cell-based, mouse. The settings on record: for pAkt level normalized to total protein / pTrkB level normalized to total protein / pmTOR level normalized to total protein: KO neurons transfected, WT/Ctrl set to one. As for the experimental part:
Fig 3 MDGA2 interacts with TrkB and suppresses TrkB activity. (A) Primary hippocampal neurons derived from Mdga2^ +/− (Het) mice and their wild-type (WT) littermates at DIV 7 were treated with different doses of BDNF for 30 min. Equal amounts of protein lysates were subjected to immunoprecipitation (IP) with an anti-TrkB antibody, followed by immunoblotting with an anti-phosphotyrosine (pTyr) antibody or the anti-TrkB antibody. The pTyr levels were quantified by densitometry, normalized to total TrkB levels, and then compared to those of WT controls. n = 3 per group. (B) WT mouse brain lysates were subjected to IP with an anti-MDGA2 antibody and a control IgG, and immunoblotted (IB) for the components indicated. mBDNF, mature BDNF; ImBDNF, immature BDNF. (C) Hippocampal neurons from WT mice at DIV 7 were immunostained with antibodies against MDGA2 (red) and TrkB (green), and then counter-stained with DAPI (blue). Images were acquired by a confocal microscope. Scale bar: 10 μm. (D) Surface plasmon resonance (SPR) analysis of the binding between recombinant MDGA2 protein and recombinant TrkB protein. TrkB was immobilized on a Biacore CM5 chip and tested for its binding with MDGA2 at the concentrations indicated. (E) Computer simulation of the binding mode of TrkB and MDGA2. The predicted binding domain of TrkB (the d5 domain) is highlighted by a red square and labeled in brown. The predicted binding domain of MDGA2 (the MAM domain) is highlighted by a red square and labeled in yellow. (F) HEK293T cells were co-transfected with TrkB-Flag and GFP-tagged full-length MDGA2 (MDGA2-GFP) or an MDGA2 deletion fragment lacking the entire MAM domain (ΔMAM-GFP). Cell lysates were subjected to IP with control IgG and antibodies against Flag or GFP, and immunoblotted for the components indicated. […] The scheme of MDGA2-ΔMAM is also shown. (G) HeLa cells were co-transfected with TrkB that is tagged with the N-terminal Venus fragment (TrkB-VN) and full-length MDGA2 or MDGA2-ΔMAM that are tagged with the C-terminal Venus fragment (MDGA2-VC or ΔMAM-VC) for 24 h. After immunostaining with antibodies against MDGA2/MDGA2-ΔMAM (pink) and TrkB (red), cells were observed by confocal microscopy. Venus signal (green) indicates the interaction between MDGA2 and TrkB. Schematic diagrams depicting the BiFC assay are also shown. Scale bars: 10 μm. (H, I) Equal amounts of protein lysates from primary neurons derived from Het, KO, and their WT littermate mice (H), and from WT primary neurons transfected with GFP control, MDGA2-GFP or ΔMAM-GFP (I) were subjected to IP with IgG and an anti-BDNF antibody, and then immunoblotted for the components indicated. Immunoprecipitated TrkB levels were quantified by densitometry, normalized to input levels, and compared to respective controls (set to one arbitrary units). n = 3 per group. (J) Neurons derived from KO mice were transfected with GFP control (Ctrl), MDGA2-GFP, or MDGA2-ΔMAM-GFP, and neurons derived from their WT littermates were transfected with GFP control (Ctrl). Equal amounts of protein lysates were subjected to immunoblotting for the proteins indicated. Levels of phosphorylated proteins were quantified by densitometry, normalized to respective total protein levels and compared to controls (set to one arbitrary units). n = 6 per group. Data represent mean ± SEM. P-values were determined by two-tailed unpaired Student t-test in (A) and one-way ANOVA with Tukey’s multiple comparisons test in (H, I, J). *p < 0.05, **p < 0.01, ***p < 0.001, ns: not significant. The data underlying this figure can be found in S1 Data, specifically in the sheet labeled “Figure 3”.
Fig 7 The autism spectrum disorder (ASD)-associated MDGA2 V930I mutation impairs the MDGA2-TrkB interaction and MDGA2’s inhibitory effect on the tyrosine kinase B (TrkB) signaling. (A) Schematic depiction of the WT human MDGA2 and its V930I mutation constructs that are tagged with GFP. […]

In a further assay the test system is TrkB (TrkB-VN). The experiment in a line: BiFC assay in HeLa cells (TrkB-VN with MDGA2-VC or ΔMAM-VC). Conditions: 24 h, Venus fluorescence. Format: cell-based, human. As for the experimental part:
as §1

The next assay concerns TrkB. The experiment in a line: Co-IP of endogenous MDGA2 and TrkB from WT mouse brain lysates. Type of assay: binding.

T1 sequence (Q16620 32-822): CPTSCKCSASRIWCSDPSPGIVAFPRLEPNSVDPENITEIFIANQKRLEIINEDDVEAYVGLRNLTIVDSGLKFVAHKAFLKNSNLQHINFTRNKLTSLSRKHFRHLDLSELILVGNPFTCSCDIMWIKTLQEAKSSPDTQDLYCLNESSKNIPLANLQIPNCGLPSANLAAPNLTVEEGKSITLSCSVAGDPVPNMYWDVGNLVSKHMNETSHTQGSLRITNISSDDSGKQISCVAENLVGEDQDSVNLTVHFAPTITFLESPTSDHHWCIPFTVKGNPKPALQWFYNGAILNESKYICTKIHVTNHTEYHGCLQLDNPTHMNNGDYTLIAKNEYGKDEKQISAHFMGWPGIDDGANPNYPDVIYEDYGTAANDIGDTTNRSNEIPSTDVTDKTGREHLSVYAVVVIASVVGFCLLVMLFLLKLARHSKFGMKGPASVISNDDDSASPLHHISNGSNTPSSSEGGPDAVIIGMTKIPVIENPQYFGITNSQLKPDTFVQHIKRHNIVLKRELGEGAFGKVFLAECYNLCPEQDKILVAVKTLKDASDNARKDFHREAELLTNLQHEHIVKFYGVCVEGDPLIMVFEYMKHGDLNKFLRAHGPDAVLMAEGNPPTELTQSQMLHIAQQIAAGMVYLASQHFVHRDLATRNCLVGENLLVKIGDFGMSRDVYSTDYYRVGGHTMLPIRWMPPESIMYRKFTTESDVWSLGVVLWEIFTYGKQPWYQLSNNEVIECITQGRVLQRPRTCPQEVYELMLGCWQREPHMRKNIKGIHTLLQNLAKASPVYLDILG

B1: MDGA2: MAM domain containing glycosylphosphatidylinositol anchor 2; full-length human, recombinant or transfected (protein, UniProt Q7Z553 1-956, looked up)
chain: MDLLYGLVWLLTVLLEGISGQGVYAPPTVRIVHSGLACNIEEERYSERVYTIREGETLELTCLVTGHPRPQIRWTKTAGSASDRFQDSSVFNETLRITNIQRHQGGRYYCKAENGLGSPAIKSIRVDVYYLDDPVVTVHQSIGEAKEQFYYERTVFLRCVANSNPPVRYSWRRGQEVLLQGSDKGVEIYEPFFTQGETKILKLKNLRPQDYANYSCIASVRNVCNIPDKMVSFRLSNKTASPSIKLLVDDPIVVNPGEAITLVCVTTGGEPAPSLTWVRSFGTLPEKTVLNGGTLTIPAITSDDAGTYSCIANNNVGNPAKKSTNIIVRALKKGRFWITPDPYHKDDNIQIGREVKISCQVEAVPSEELTFSWFKNGRPLRSSERMVITQTDPDVSPGTTNLDIIDLKFTDFGTYTCVASLKGGGISDISIDVNISSSTVPPNLTVPQEKSPLVTREGDTIELQCQVTGKPKPIILWSRADKEVAMPDGSMQMESYDGTLRIVNVSREMSGMYRCQTSQYNGFNVKPREALVQLIVQYPPAVEPAFLEIRQGQDRSVTMSCRVLRAYPIRVLTYEWRLGNKLLRTGQFDSQEYTEYAVKSLSNENYGVYNCSIINEAGAGRCSFLVTGKAYAPEFYYDTYNPVWQNRHRVYSYSLQWTQMNPDAVDRIVAYRLGIRQAGQQRWWEQEIKINGNIQKGELITYNLTELIKPEAYEVRLTPLTKFGEGDSTIRVIKYSAPVNPHLREFHCGFEDGNICLFTQDDTDNFDWTKQSTATRNTKYTPNTGPNADRSGSKEGFYMYIETSRPRLEGEKARLLSPVFSIAPKNPYGPTNTAYCFSFFYHMYGQHIGVLNVYLRLKGQTTIENPLWSSSGNKGQRWNEAHVNIYPITSFQLIFEGIRGPGIEGDIAIDDVSIAEGECAKQDLATKNSVDGAVGILVHIWLFPIIVLISILSPRR
modifications: full-length GFP tag in some constructs
notes: MAM domain containing glycosylphosphatidylinositol anchor 2; full-length human, recombinant or transfected
As for B1, the Kd with recombinant TrkB protein amounted to 24.4 nM. For the same molecule, the “interaction between BDNF and TrkB upon overexpression” value in the assay with BDNF-TrkB interaction was “attenuated the interaction between BDNF and TrkB”. Further, the “pAkt level normalized to total protein” value was 1.48 arbitrary units in assay [1] (replicate 1); 1.42 arbitrary units in assay [1] (replicate 2); 1.72 arbitrary units in assay [1] (replicate 3); 1.9 arbitrary units in assay [1] (replicate 4); 1.87 arbitrary units in assay [1] (replicate 5); 1.07 arbitrary units in assay [1] (replicate 6). Further, the “pTrkB level normalized to total protein” value in assay [1] (replicate 1) came out at 1.52 arbitrary units; in assay [1] (replicate 2) it was 1.19 arbitrary units; in assay [1] (replicate 3), 1.31 arbitrary units; in assay [1] (replicate 4), 1.16 arbitrary units; in assay [1] (replicate 5), 1.08 arbitrary units; in assay [1] (replicate 6), 1.03 arbitrary units. Moreover, the “pmTOR level normalized to total protein” value in assay [1] (replicate 1) is on record as 0.88 arbitrary units; in assay [1] (replicate 2), 1.02 arbitrary units; in assay [1] (replicate 3), 1.26 arbitrary units; in assay [1] (replicate 4), 1.35 arbitrary units; in assay [1] (replicate 5), 1.92 arbitrary units; in assay [1] (replicate 6) it was 1.41 arbitrary units. Besides, the “overactivation of TrkB signaling (pTrkB, pAkt, pmTOR) upon expression” value in assay [1] (Mdga2-/- neurons, Fig 3J, n = 6) is listed as “could be reversed upon the expression of full-length MDGA2”. Besides, the “interaction with TrkB (BiFC)” value in the assay with TrkB (TrkB-VN) is on record as “could interact with full-length MDGA2”. Also, the “interaction of endogenous MDGA2 (Co-IP)” value in the assay with TrkB (IP anti-MDGA2, Fig 3B) is “immunoprecipitated TrkB and NLGN1 but not mBDNF or ImBDNF”; with TrkB (IP anti-TrkB, S3C Fig), “specifically immunoprecipitated MDGA2 but not MDGA1”.
